# In patent US11207423B2, “Nanocarriers having surface conjugated peptides and uses thereof for sustained local release of drugs” (Northwestern University, priority 2016, dated 2021):
# Ends that are not written are not given here.
# Key:
# [1] = Rabbit eye clearance of Cy7-tagged nanoparticles by in vivo imaging (IVIS)
# Method: FIG. 8. Slowed rabbit eye clearance in vivo with Cy7-tagged 3R-peptide CDEX conjugate. 20 μl of anchor peptide amino-PEG8-RRYRL-amide (SEQ ID NO:5) conjugate to CDEX (2.5 mg/ml) along with conjugated 0.05 moles/particle Cy7-amine was injected into rabbit eyes on day one. Left eye 14 peptides/particle, right eye 21 peptides/particle.
# FIG. 10. In vivo charge and zeta potential-dependent loss of NP from rabbit vitreous expressed as a percentage of the first measured photon flux at day 10 post-injection (taken as day 0). Volume of injection: 25 μl; nanocarrier concentration: 3 mg/ml. [Control: CDEX70-0: (n=2). CDEX70-2R; 64 peptides per particle by BCA (n=3) and CDEX70-3R; 61 peptides per particle by BCA (n=3)]. Half-lives: CDEX-0: 4 days; CDEX-2R: 7 days; CDEX70-3R: 13 days. 2R and 3R peptides are respectively (SEQ ID NO:4) and (SEQ ID NO:5) linked as carbamates of 3pyrrolidineCO-amido-PEG8-CO-peptide to Cy7-CDEX70. Cy7 amine is carbamate-linked at <1 mole/mole NP.
# Thus BCA protein analysis of increasing peptide, with time in filtrate after 30 kDa filtration of a loaded carrier sample in buffer estimates the half-life for peptide release in buffer. For confirmation in actual vitreous humor (e.g., rabbit) at time points post injection LC-MS estimation of the peptide in vitreous extract follows precipitation of excess HA after adding 3 volumes of ethanol. […] Free intravitreal peptide is assayed after centrifugation via 30 kDa MWCO spin filter.
# Retention of the NP in vitreous was tested in vivo in rabbits. 25 μl of CDEX70-2R-Cy7 (SEQ ID NO:4) 3 mg/ml or CDEX70-3R-Cy7 (SEQ ID NO:5) 3 mg/ml was administered by intravitreal injection and imaged via an IVIS scan after 4 weeks and nine weeks. Left: 4-week experiment. (See FIG. 9). The in vivo diffusion dependent loss of NP from rabbit vitreous expressed as percentage of the first measurement at day 10 post-injection (taken as day 0) is provided in FIG. 10. The determined half-lives of the NP is as follows: CDEX-0-Cy7: 4 days; CDEX-2R-Cy7: 7 days; CDEX70-3R-Cy7: 13 days. In vivo diffusion-dependent loss of NP from rabbit vitreous expressed as Flux of the first measurement at day 10 post-injection (taken as day 0) of CDEX70-2R-Cy7 at 4 different concentrations [Control: 0 mg/ml (n=6). 3 mg/ml (n=3).
# [2] = Zeta potential measurement (electrophoretic light scattering); type: physicochemical
# Method: (§1) Sample characteristics (particle size, polydispersity and zeta-potential) were measured by a dynamic light scattering method using Malvern Zeta Sizer Nano-S90 instrument according to the manufacturer recommendations. Briefly, hydrodynamic diameter (dh) and polydispersity index (PDI) of nanogel/microgels were obtained for 1 mg/mL aqueous solutions at 25° C. in triplicates after sonication for 30 min and centrifugation at 12,000 rpm. Zeta-potential of the samples was measured for the same solutions in standard 1 cm-cuvettesusing zeta-potential option in the company's software. Average of five measurements±SD was registered.
# (§2) Peptide concentration was estimated by BCA (Pierce) protein assay against a standard curve of free peptide. Zeta potential and size was measured on non-rhodamine product using electrophoretic light scattering and dynamic light scattering, respectively (Zetasizer, Malvern). The Z averaged particle size is 15 nm and the full width at half maximum of the distribution peak is 24 nm. Zeta potentials for 1-Arg, 2-Arg, 3-Arg and 4-Arg peptide conjugates were 0.07 mV, 2.2 mV, 4.6 mV and 9.2 mV respectively (Table 2).
# [3] = Particle size measurement (dynamic light scattering); type: physicochemical
# Method: as §1, §2
# [4] = human vitreous; cited from earlier work
# [5] = test system: laser-induced choroidal neovascularization (CNV); settings: single intravitreal injection of 1-ul 4 mg/ml 2 days before laser wounding; angiogenesis markers 14 days later
# Method: FIG. 12B. […] A single injection of 1-ul 4 mg/ml peptide (SEQ ID NO:6) or control is injected into mouse vitreous 2 days before laser wounding of the retina. Angiogenesis markers are detected by antibody stain, 14 days later.
substance,measurement,setting,value
Cy7-tagged 3R-peptide CDEX conjugate: Anchor peptide amino-PEG8-RRYRL-amide (SEQ ID NO:5) conjugated to CDEX with 0.05 moles/particle Cy7-amine; 14 or 21 peptides/particle (RRYRL-NH2; not fully specified (N-terminus); printed as amino-PEG8-RRYRL-amide; also: Cy7-amine on CDEX particle),fluorescence lost,"[1]; rabbit left eye, 14 peptides/particle, 20 μl of 2.5 mg/ml",> 90%
same,residence in eye,"[1]; rabbit right eye, 21 peptides/particle, 20 μl of 2.5 mg/ml",longer residence of conjugate in eye
CDEX-3R-Cy7: Cy7-CDEX70 carbamate-linked to 3-pyrrolidine-CONH-PEG(8)-CO-Arg-Arg-Tyr-Arg-Leu-NH2 (SEQ ID NO:5) (RRYRL-NH2; not fully specified (N-terminus); printed as 3-pyrrolidine-CONH-PEG(8)-CO-Arg-Arg-Tyr-Arg-Leu-NH2; also: carbamate-linked to Cy7-CDEX70 nanocarrier),half-life of NP in rabbit vitreous,"[1]; intravitreal 25 μl, 3 mg/ml, photon flux relative to day 10 post-injection (taken as day 0)",13 days
same,retention in eye compared with 2R peptide conjugate at similar peptide loading,"[1]; rabbit, IVIS scans after 4 and 9 weeks",retained longer in the eye
same,Zeta potential,[2],6.34 ± 1.28 mV
same,Particle size,[3],81.69 ± 7.44 nm
Ranibizumab: a VEGF inhibitor for treatment of advanced AMD,half-life in vitreous,[4],approximately 9 days
adipic-Sar-Tyr-Asn-Leu-Tyr-Arg-Val-Arg-Ser-NH2 [SEQ ID NO:6],retinal protective activity,[5],reduction of laser-induced choroidal neovascularization (CNV)
"CDEX-AP3: CDI-activated CDEX nanogel carbamate-linked to AP3, amino-PEG(12)-CO-Arg-Arg-Ser-Arg-amide (SEQ ID NO:19) (RRSR-NH2; not fully specified (N-terminus); printed as amino-PEG(12)-CO-Arg-Arg-Ser-Arg-amide; also: carbamate-linked to CDI-activated CDEX nanogel)",Zeta potential,[2],4.58 mV
same,Particle size,[3],124 ± 1.4 nm
